The nature of this data set: Hydrolysis of Pertuzumab conjugated samples obtained using different small molecule compounds, hydrolysis percentage by Native MS. It is filed as physicochemical. To be noted: Pertuzumab conjugate, Native MS. The protocol:
The analysis conditions were as follows: • Capillary activation: the capillary was rinsed with 0.1 mol/L sodium hydroxide for 10 min, 0.1 mol/L hydrochloric acid for 5 min and water for injection for 2 min respectively at 20 psi; and then rinsed with SDS-MW-Gel Buffer for 10 min at 70 psi; afterwards, pre-separation was performed for 10 min at 20 psi, at a column temperature of 25° C. and a voltage of −15 kv. The program was run: at 70 psi, the capillary was rinsed with 0.1 mol/L sodium hydroxide for 3 min, 0.1 mol/L hydrochloric acid for 1 min and water for injection for 1 min respectively; then the gel was poured for 10 min, the sample was loaded for 40 s at −5 kv, and the separation program was run ([…], 20 psi). The column temperature was set to 25° C., the voltage for separation was set to −15 kv, and the separation was performed for 40 min. • (4) Size exclusion chromatography (SEC-HPLC): • Sample treatment: the sample was diluted to 2.0-3.0 mg/ml with the mobile phase, and then was centrifuged at 12000 rpm for 10 min; and the supernatant was taken for analysis. • Chromatographic column: TOSOH, TSKgel G3000SWXL, 5 μm, 7.8 mm×300 mm; • Mobile phase: 100 mM PB+200 mM arginine hydrochloride, 5% isopropanol (pH 6.8); • Flow rate: 0.6 mL/min; • Detection wavelength: 280 nm; • Column temperature: 30° C.; • Loading volume: 10 uL; • Elution gradient: isocratic elution. • (5) Native MS: • Chromatographic column: ACQUITY UPLC Protein BEH SEC 200A (1.7 μm, 2.1 mm×150 mm); • Mobile phase: 50 mM ammonium acetate; • Running time: 12 min; • Flow rate: 0.065 mL/min; • Loading volume: 2 μL; • Column temperature: 30° C.; • Detection wavelength: 280 nm; • Capillary: 3.0 kV; • Cone voltage: 140 V; • Source offset: 80 V; • Source temperature: 125° C.; • Desolvation temperature: 250° C.; • Desolvation gas flow: 600 L/h. • (6) LC-MS:
Pertuzumab was reduced and conjugated as described in section a in Example 2. Conjugated samples obtained using different small molecule compounds were subjected to hydrolysis at 35° C. for a time period in the range of 3-18 hours, in 50 mM sodium dihydrogen phosphate-disodium hydrogen phosphate buffer, pH 7.8. The hydrolysis systems were sampled at different time points, and detected by Native MS.
Pertuzumab was reduced and conjugated as described in section a in Example 2. Conjugated samples obtained using different small molecule compounds were displaced to different hydrolysis solution systems (A: 50 mM sodium dihydrogen phosphate-disodium hydrogen phosphate buffer, pH 7.8; B: 50 mM sodium dihydrogen phosphate-disodium hydrogen phosphate buffer+3% arginine, pH 7.8; C: 50 mM potassium dihydrogen phosphate-dipotassium hydrogen phosphate buffer, pH 7.8; and D: 50 mM tromethamine-hydrochloric acid buffer, pH 7.8) for hydrolysis. Then the hydrolysis systems were sampled at different time points, and detected by Native MS.

*1 amine or outer side, *2 acyl side, *3 side chain or, on linkers, in order; H or OH if unused. Where a SMILES comes first, the peptide text is derived from it. [ ]: non-standard residue; d: D form. The star is where a group is joined. ξ: configuration not given here. Dil(5ξ) = CCC(C)[C@@H]([C@@H](CC(=O)[*:2])OC)N(C)[*:1]; Dolaproine = CO[C@@H]([C@@H]1CCCN1)[C@@H](C)C(=O)O; Hexanoyl(6-maleimido) = O=C1C=CC(=O)N1CCCCCC(=O)*; PABC = O=C(OCc1ccc(N[*:1])cc1)[*:2]; X1 = C[C@@H](N*)[C@@H](O)c1ccccc1; Cit = NC(=O)NCCC[C@H](N)C(=O)O; NMeV = CN[C@H](C(=O)O)C(C)C

`CCC(C)[C@@H]([C@@H](CC(=O)N1CCC[C@H]1[C@H](OC)[C@@H](C)C(=O)N[C@H](C)[C@@H](O)c1ccccc1)OC)N(C)C(=O)[C@@H](NC(=O)[C@H](C(C)C)N(C)C(=O)OCc1ccc(NC(=O)[C@H](CCCNC(N)=O)NC(=O)[C@@H](NC(=O)CCCCCN2C(=O)C=CC2=O)C(C)C)cc1)C(C)C` (stereo partly drawn) [D-1] ({Hexanoyl(6-maleimido)}-V[Cit][PABC][NMeV]V[Dil(5ξ)][Dolaproine]-X1): the “6 h hydrolysis percentage” value (50 mM PB pH 7.8, 35° C., 6 h) amounted to 7.67%. Under “50 mM PB pH 7.8, 35° C., 18 h”, the “18 h hydrolysis percentage” value is recorded as 21.44%. Further, the “3 h hydrolysis percentage” value (50 mM sodium dihydrogen phosphate-disodium hydrogen phosphate buffer, pH 7.8, 35° C., 3 h) is 4.74%.
